In the assay the target is T1, 人PDL1蛋白 (human, UniProt Q9NZQ7 19-239, limits assumed).
T1 construct: Bought recombinant protein; also called human PDL1; B7-H1
The assay can be described thus: non-competitive ELISA, four coating concentrations of PDL1 (1, 0.5, 0.25, 0.125 ug/mL), KA=(n-1)/(nAb'-Ab), mean of 6 values. (In general: In an ELISA, binding on a coated surface is turned into a signal by an enzyme label.)

Our source for the Ka values is patent CN116023492A (XINJIANG YOUMAI BIOTECHNOLOGY CO LTD, dated 2023).

T1 sequence (Q9NZQ7 19-239 limits assumed): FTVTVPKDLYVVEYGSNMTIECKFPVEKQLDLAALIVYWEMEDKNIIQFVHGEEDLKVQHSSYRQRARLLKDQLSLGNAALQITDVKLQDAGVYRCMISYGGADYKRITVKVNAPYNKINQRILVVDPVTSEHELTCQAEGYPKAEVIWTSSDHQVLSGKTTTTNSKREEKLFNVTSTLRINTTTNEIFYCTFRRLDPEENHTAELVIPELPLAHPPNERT

B1: 抗人PDL1纳米抗体 Nb2 (VHH)
VHH: QVQLQESGGGSVQAGGSLRLSCIASGVDYNSRTDRMAWFRQVPGKEREGVAAIYTYNNRTYYADSVKGRFTISQDIGKNTVYLQMNSLEPEDTATYYCARDWRFSSGMLDKNMYKYWGQGTQVTVSS
notes: Expressed from pMECS in E. coli TG1, Ni-purified; also called 抗PDL1(Nb2)纳米抗体; not shown: C-terminal HA and His tags from the pMECS vector
For the molecule B1, the Ka is 933000 M⁻¹.
